Test results reported in patent EP4772536A1 (Teijin Pharma Limited, dated 2026).
Blank lines part the entries; values can stand above or below the binder they belong to.

Columns and labels:
[1] = molecular target: T1, recombinant human soluble gpNMB (human gpNMB-FLAG-His) (human, UniProt Q14956 23-498); test: SPR single-cycle kinetics, gpNMB-FLAG-His captured, 1:1 model
T1 construct: FLAG and His tags; also called recombinant human gpNMB-FLAG-His
T1 sequence: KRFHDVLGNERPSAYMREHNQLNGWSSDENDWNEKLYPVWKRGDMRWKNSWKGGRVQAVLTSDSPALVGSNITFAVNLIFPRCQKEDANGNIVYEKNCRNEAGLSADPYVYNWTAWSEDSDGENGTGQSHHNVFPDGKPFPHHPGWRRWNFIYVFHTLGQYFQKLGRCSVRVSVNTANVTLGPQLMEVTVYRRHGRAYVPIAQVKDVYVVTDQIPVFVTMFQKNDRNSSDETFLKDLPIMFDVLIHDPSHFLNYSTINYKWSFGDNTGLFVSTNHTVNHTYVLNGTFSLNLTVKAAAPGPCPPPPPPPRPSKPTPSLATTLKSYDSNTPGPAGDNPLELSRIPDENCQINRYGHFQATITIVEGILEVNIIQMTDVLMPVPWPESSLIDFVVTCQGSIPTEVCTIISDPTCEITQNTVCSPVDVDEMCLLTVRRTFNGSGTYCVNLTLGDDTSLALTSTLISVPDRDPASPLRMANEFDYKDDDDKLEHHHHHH

[2] = molecular target: T2, recombinant mouse soluble gpNMB (mouse gpNMB-FLAG-His) (mouse, UniProt Q99P91 23-502); test: as above
T2 construct: FLAG and His tags; also called recombinant mouse gpNMB-FLAG-His
T2 sequence: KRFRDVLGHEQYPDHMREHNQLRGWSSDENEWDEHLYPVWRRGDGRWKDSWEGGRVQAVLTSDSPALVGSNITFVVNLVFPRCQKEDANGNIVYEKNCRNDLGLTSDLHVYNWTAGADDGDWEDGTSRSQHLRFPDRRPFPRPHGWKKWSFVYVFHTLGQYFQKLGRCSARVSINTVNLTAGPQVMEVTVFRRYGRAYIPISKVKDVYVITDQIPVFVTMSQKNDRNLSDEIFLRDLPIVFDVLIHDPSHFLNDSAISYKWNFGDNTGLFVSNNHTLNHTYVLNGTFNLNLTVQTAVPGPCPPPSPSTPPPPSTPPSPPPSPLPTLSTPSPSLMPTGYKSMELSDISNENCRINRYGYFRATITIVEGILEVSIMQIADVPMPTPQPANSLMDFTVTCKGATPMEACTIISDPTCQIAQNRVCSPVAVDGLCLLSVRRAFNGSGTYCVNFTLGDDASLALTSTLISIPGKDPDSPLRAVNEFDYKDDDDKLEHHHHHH

- Kd [1]: 0.488 nM
- koff [1]: 0.000253 s⁻¹
- kon [1]: 519000 M⁻¹ s⁻¹
- Kd [2]: 5.05 nM
- koff [2]: 0.000879 s⁻¹
- kon [2]: 174000 M⁻¹ s⁻¹
B1: GPN06-1 (antibody, V domains shown)
VH: QVQLQQPGAEIVRPGASVKLSCKASGYTFTDNWMGWVKQRPGQGLEWIGAIDPSDSFTNYNQNFKGKATLTVDTSSSTAYMQLSSLTSEDSAVYFCTRSGYYGSPKLGGDYWGQGTTLTVSS
VL: QIVLTQSPAIMSASLGEEITLTCSASSSISYMHWYQQKSGTSPKLLIYSTSNLASGVPSRFSGSGSGTFYSLTISSVEAEDAADYYCHQWNSYPCTFGGGTKLEIK
notes: anti-gpNMB monoclonal antibody

- Kd [1]: 0.366 nM
- koff [1]: 3.55e-05 s⁻¹
- kon [1]: 96900 M⁻¹ s⁻¹
- Kd [2]: 8.5 nM
- koff [2]: 0.000307 s⁻¹
- kon [2]: 36100 M⁻¹ s⁻¹
B2: GPN05-1 (antibody, V domains shown)
VH: QVQLQQSGAELVRPGTSVKVSCKASGYAFSNHLIEWVKQRPGQGLEWIGVINPGSGGTNYIEKFKGKATLTADKSSSTAYMQLSSLTSDDSAVYFCARGANWDVGFAYWGQGTLVTVSA
VL: EIQMTQSPSSMSASLGDRITITCQATQDIVKNLNWYQQKPGKPPSFLIYYATELAEGVPSRFSGSGSGSDFSLTISNLESEDFADYYCLQFHEFPRTFGGGTKLEIK
notes: as for B1
